The target in assay [1] is T1, NFS1-ISD11 complex (SD), purified, His tag removed (human, UniProt Q9Y697 56-457; Q9HD34 1-91). As to the kind of experiment: BLI.
Assay [2] addresses T1, NFS1-ISD11 complex (SD), purified, His …. As to the kind of experiment: BLI. This is another data set of the same source. A general note: Biolayer interferometry detects binding as a change in optical thickness at a sensor tip.

Like-named read-outs stand apart in the source and are kept apart here.

T1 sequence (Q9Y697 56-457, chain 1 of 2): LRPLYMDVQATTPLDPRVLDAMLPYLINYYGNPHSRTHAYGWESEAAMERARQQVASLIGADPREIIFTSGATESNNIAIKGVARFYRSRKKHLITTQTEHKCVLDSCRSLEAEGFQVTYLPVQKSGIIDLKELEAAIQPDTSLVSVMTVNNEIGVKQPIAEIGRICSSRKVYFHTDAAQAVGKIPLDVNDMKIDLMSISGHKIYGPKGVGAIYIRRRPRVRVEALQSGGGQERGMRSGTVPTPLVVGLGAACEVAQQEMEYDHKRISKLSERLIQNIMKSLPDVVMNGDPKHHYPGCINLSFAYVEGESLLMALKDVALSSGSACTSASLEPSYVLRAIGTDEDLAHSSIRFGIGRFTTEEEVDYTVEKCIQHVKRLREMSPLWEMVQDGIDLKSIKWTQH
T1 sequence (Q9HD34 whole entry, chain 2 of 2): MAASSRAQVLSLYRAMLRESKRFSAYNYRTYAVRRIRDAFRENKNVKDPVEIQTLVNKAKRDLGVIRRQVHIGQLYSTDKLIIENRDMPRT

B1: biotinylated human ISCU (Δ1-34), wild type (natural protein, UniProt Q9H1K1 35-167, looked up)
chain: YHKKVVDHYENPRNVGSLDKTSKNVGTGLVGAPACGDVMKLQIQVDEKGKIVDARFKTFGCGSAIASSSLATEWVKGKTVEEALTIKNTDIAKELCLPPVKLHCSMLAEDAIKAALADYKLKQEPKKGEAEKK
modifications: biotin (site not stated)
Turning to B1, the Kd (usually the free concentration of one partner at which half of the binding sites on the other are occupied at equilibrium, for simple one-to-one binding) in assay [1] came to 87.8 ± 7 nM; in assay [2], 160 ± 26 nM.

The values are drawn from paper doi:10.1101/262477 (bioRxiv, 2018).
